Results on 94 variants are retold here after the supplement of paper PMC10567573.

B1: TRIM15 (parent)
chain: QSSGKILLCPLCQEEEQAETPMAP
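Also: lentivirally expressed fusions sorted by FACS into six bins by GFP to DsRed ratio, PSI derived from sequencing read proportions per bin multiplied by bin number.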

The variants in the data set derive from B1. Briefly: protein stability index of a GFP-peptide fusion (GPS, HEK-293T) (PSI 1-6); higher = more stable. The conditions noted are these: c terminus: a fixed tail appended.
In the case of QSSGKILLCPLCQEEEQAETPMAA, the protein stability index came out at 4.

With QSSGKILLCPLCQEEEQAETPMAT, the protein stability index was found to be 3.48.

On to QSSGKILLCPLCQEEEQAETPMAK, for which the protein stability index was 3.17.

As for QSSGKILLCPLCQEEEQAETPMAH, the protein stability index was found to be 3.88.

As to QSSGKILLCPLCQEEEMAETPMAP, the protein stability index was 3.02.

Regarding QSSGKILLCPLCQEEECAETPMAP, the protein stability index turned out to be 2.23.

With QSSGKILLCPLCQEEETAETPMAP, the protein stability index worked out at 3.63.

Take QSSGKILLCPLCQEEEFAETPMAP: the protein stability index is 2.55.

Take QSSGKILLCPLCQEEEPAETPMAP: the protein stability index was 4.21.

For the variant QSSGKILLCPLCQEEEVAETPMAP, the protein stability index was determined as 2.82.

QSSGKILLCPLCQEEEQHETPMAP: the protein stability index turned out to be 3.29.

Turning to QSSGKILLCPLCQEEEQCETPMAP, the protein stability index is 3.33.

Consider QSSGKILLCPLCQEEEQEETPMAP, for which the protein stability index came to 3.34.

Turning to QSSGRILLCPLCQEEEQAETPMAP, the protein stability index is 3.22.

For QSSGMILLCPLCQEEEQAETPMAP, the protein stability index was 2.41.

For the variant QSSGDILLCPLCQEEEQAETPMAP, the protein stability index was determined as 3.72.

Take QSSGCILLCPLCQEEEQAETPMAP: the protein stability index was 3.54.

For QSSGQILLCPLCQEEEQAETPMAP, the protein stability index was 3.98.

For QSSGKLLLCPLCQEEEQAETPMAP, the protein stability index turned out to be 3.79.

For QSSGKDLLCPLCQEEEQAETPMAP, the protein stability index was found to be 4.77.

Take QSSGKGLLCPLCQEEEQAETPMAP: the protein stability index stood at 3.53.

As for QSSGKPLLCPLCQEEEQAETPMAP, the protein stability index came to 4.11.

For the variant QSSGKHLLCPLCQEEEQAETPMAP, the protein stability index is 3.15.

In the case of QSSGKELLCPLCQEEEQAETPMAP, the protein stability index turned out to be 3.62.

Consider QSSGKTLLCPLCQEEEQAETPMAP, for which the protein stability index was determined as 3.89.

Consider QVSGKILLCPLCQEEEQAETPMAP, for which the protein stability index came to 2.56.

Regarding QKSGKILLCPLCQEEEQAETPMAP, the protein stability index turned out to be 3.47.

For QDSGKILLCPLCQEEEQAETPMAP, the protein stability index came to 3.78.

For QCSGKILLCPLCQEEEQAETPMAP, the protein stability index came out at 2.88.

Take QFSGKILLCPLCQEEEQAETPMAP: the protein stability index came to 2.18.

Regarding QSSGKILLCPLCQEQEQAETPMAP, the protein stability index amounted to 3.54.

As to QSSGKILLCPLCQEYEQAETPMAP, the protein stability index was 2.53.

Regarding QSSGKILLCPLCQEMEQAETPMAP, the protein stability index was found to be 2.25.

With QSSGKILLCPLCQEVEQAETPMAP, the protein stability index was 2.35.

Regarding QSSGKILLCPLCQEFEQAETPMAP, the protein stability index turned out to be 2.

QSSGKILLCPLCQENEQAETPMAP: the protein stability index came out at 2.28.

As to ASSGKILLCPLCQEEEQAETPMAP, the protein stability index amounted to 3.2.

For the variant ISSGKILLCPLCQEEEQAETPMAP, the protein stability index was determined as 3.27.

Consider MSSGKILLCPLCQEEEQAETPMAP, for which the protein stability index was found to be 2.63.

Consider QSSGKILLCPLIQEEEQAETPMAP, for which the protein stability index was found to be 4.68.

Turning to QSSGKILLCPLKQEEEQAETPMAP, the protein stability index is 4.93.

For QSSGKILLCPLYQEEEQAETPMAP, the protein stability index was 4.54.

Turning to QSSGKILLCPLQQEEEQAETPMAP, the protein stability index was found to be 5.09.

In the case of QSSGKILLCPLWQEEEQAETPMAP, the protein stability index worked out at 3.75.

As to QSSGKILLCPLSQEEEQAETPMAP, the protein stability index is 5.23.

As to QSSGKILLCPLFQEEEQAETPMAP, the protein stability index is 4.81.

Consider QSSGKILLCPLTQEEEQAETPMAP, for which the protein stability index was 5.43.

With QSSGKILLCPLAQEEEQAETPMAP, the protein stability index amounted to 4.22.

QSSGKILLCPLCCEEEQAETPMAP: the protein stability index turned out to be 2.79.

QSSGKILLCPLCPEEEQAETPMAP: the protein stability index worked out at 4.49.

As for QSSGKILLCPLCQEENQAETPMAP, the protein stability index is 3.1.

As for QSSGKILLCPLCQEEQQAETPMAP, the protein stability index worked out at 1.72.

In the case of QSSGKILLCPLCQEEKQAETPMAP, the protein stability index worked out at 3.08.

As for QSSGKILLCPLCQEEPQAETPMAP, the protein stability index was 3.28.

On to QSIGKILLCPLCQEEEQAETPMAP, for which the protein stability index turned out to be 3.31.

In the case of QSHGKILLCPLCQEEEQAETPMAP, the protein stability index stood at 2.99.

Consider QSQGKILLCPLCQEEEQAETPMAP, for which the protein stability index was 3.63.

Turning to QSWGKILLCPLCQEEEQAETPMAP, the protein stability index came out at 2.16.

Consider QSNGKILLCPLCQEEEQAETPMAP, for which the protein stability index was 3.62.

As for QSKGKILLCPLCQEEEQAETPMAP, the protein stability index turned out to be 3.21.

For the variant QSTGKILLCPLCQEEEQAETPMAP, the protein stability index was 3.58.

For QSGGKILLCPLCQEEEQAETPMAP, the protein stability index amounted to 3.34.

QSEGKILLCPLCQEEEQAETPMAP: the protein stability index came to 3.79.

For the variant QSSGKILLCPGCQEEEQAETPMAP, the protein stability index worked out at 4.63.

For QSSGKILLCPCCQEEEQAETPMAP, the protein stability index is 3.28.

With QSSGKILLCPICQEEEQAETPMAP, the protein stability index stood at 3.94.

Regarding QSSGKILLCPDCQEEEQAETPMAP, the protein stability index was found to be 4.98.

On to QSSGKILLCPLCQEEEQATTPMAP, for which the protein stability index was found to be 3.09.

For the variant QSSGKILLCPLCQEEEQASTPMAP, the protein stability index was determined as 2.51.

On to QSSGKILLCPLCQEEEQAATPMAP, for which the protein stability index was found to be 3.12.

Take QSSGKILLCPLCQEEEQANTPMAP: the protein stability index was found to be 2.87.

With QSSGKILLCPLCQEEEQAFTPMAP, the protein stability index is 2.06.

Consider QSSGKILLCPLCQEEEQARTPMAP, for which the protein stability index was 2.99.

For the variant QSSGKILLCPLCQEEEQAQTPMAP, the protein stability index came to 2.61.

Consider QSSGKILLCPLCQEEEQAGTPMAP, for which the protein stability index is 3.09.

Take QSSGKILLCPLCQEEEQACTPMAP: the protein stability index is 2.

Consider QSSGKILLCPLCQEEEQAETMMAP, for which the protein stability index came to 2.45.

For the variant QSSGKILLCPLCQEEEQAETSMAP, the protein stability index was 3.76.

For the variant QSSGKILLCPLCQEEEQAETHMAP, the protein stability index was 2.98.

Regarding QSSGKILLCPLCQEEEQAETTMAP, the protein stability index worked out at 3.16.

As for QSSGKILLCPLCQEEEQAETYMAP, the protein stability index stood at 2.68.

Turning to QSSGKILLCGLCQEEEQAETPMAP, the protein stability index was determined as 4.31.

For QSSGKILLCQLCQEEEQAETPMAP, the protein stability index came out at 3.77.

Turning to QSSGKILLCMLCQEEEQAETPMAP, the protein stability index was 2.75.

As to QSSGKILLCFLCQEEEQAETPMAP, the protein stability index was 2.13.

Take QSSGKILLCILCQEEEQAETPMAP: the protein stability index was 1.99.

For the variant QSSGKILLHPLCQEEEQAETPMAP, the protein stability index amounted to 5.15.

QSSGKILLTPLCQEEEQAETPMAP: the protein stability index was 5.22.

For QSSGKILLMPLCQEEEQAETPMAP, the protein stability index stood at 4.5.

For the variant QSSGKILLAPLCQEEEQAETPMAP, the protein stability index was determined as 5.01.

As for QSSGKILLNPLCQEEEQAETPMAP, the protein stability index worked out at 5.59.

Turning to QSSGKILLLPLCQEEEQAETPMAP, the protein stability index is 4.

For the variant QSSGKILLCPLCQEEEQAEIPMAP, the protein stability index was 3.5.

Regarding QSSGKILLCPLCQEEEQAELPMAP, the protein stability index is 3.8.
